{"source": "patent EP3574020B1", "binders": {"B1": {"name": "Recombinant 301-17 IgG1 (murine IgG1 backbone) (antibody, V domains shown)", "VH": "QVQLQQPGAELVKPGASVKMSCKASGYSFTSYWINWVKQRPGQGLEWIGDVHPGRGVSTYNAKFKSKATLTLDTSSSTAYMQLSSLTSEDSAVYYCSRSHGNTYWFFDVWGAGTTVTVSS", "VL": "DVLMTQTPLSLPVSLGDQASISCRSSQSIVHSNGNTYLEWYLQKPGQSPKLLIYKVSNRFSGVPDRFSGSGSGTDFTLKISRVEAEDLGVYYCFQGSHVPFTFGSGTKLEIKR"}, "B2": {"name": "Humanized antibody of 301-17 (VH2 Vk5), human IgG4 (S241P hinge variant) / kappa (antibody, V domains shown)", "VH": "B1 VH with Q5V, P7S, L11V, V12K, K67R, S76I, Q82E, T87R, S91T, A112Q", "VL": "B1 VL with T7S, S14T, D17Q, Q18P, L42Q, K44R, K50R, L88V, S105Q"}, "B3": {"name": "301-11 mouse monoclonal antibody (IgG3, kappa) (antibody, V domains shown)", "VH": "EVQLVESGGGLVKPGGSLKLSCAASGFTFSDYYMYWVRQTPEKRLEWVATISDGGSYTSYPDSVKGRFTISRDNAKNNLYLQMSSLRSEDTAMYYCARDYYGSSSYTSGFAYWGQGTLVTVSA", "VL": "DIVMSQSPSSLAVSTGEKVTMSCKSSQSLLNSRTRKNYLAWYQQKPGQSPKLLIYWASTRESGVPDRFTGSGSGTDFTLTISSVQAEDLAVYYCKQSYNLYTFGGGTKLEIK"}, "B4": {"name": "301-17 mouse monoclonal antibody, hybridoma-purified IgG3 (antibody, V domains shown)", "VH": "QVQLQQPGAELVKPGASVKMSCKASGYSFTSYWINWVKQRPGQGLEWIGDVHPGRGVSTYNAKFKSKATLTLDTSSSTAYMQLSSLTSEDSAVYYCSRSHGNTYWFFDVWGAGTTVTVSSATTTAPS", "VL": "DVLMTQTPLSLPVSLGDQASISCRSSQSIVHSNGNTYLEWYLQKPGQSPKLLIYKVSNRFSGVPDRFSGSGSGTDFTLKISRVEAEDLGVYYCFQGSHVPFTFGSGTKLEIKRADA"}}, "key": {"[1]": {"target": "T1, cyclo(CGHHQKG) cyclic peptide, conjugated to BSA", "T1 sequence (peptide, cyclized peptide, cyclo(CGHHQKG); conjugated to BSA)": "CGHHQKG", "experiment": "MAAS-2 SPR; antibody immobilized, cyclopeptide-BSA at pH 6.5, 7.5 or 8.0"}, "[2]": {"target": "A-beta oligomers in the low molecular weight (LMW, ~8-70 kDa) fraction of soluble human AD brain extract (human) (UniProt P05067)", "sequence (P05067 672-713)": "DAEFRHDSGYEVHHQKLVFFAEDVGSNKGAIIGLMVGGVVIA", "experiment": "SPR; antibody immobilized, SEC fraction at 100ug/ml"}, "A-beta42 Monomer (human) [3]": {"target": "A-beta42 Monomer (human)", "sequence (peptide, as listed by the source)": "as the sequence (P05067 672-713) above", "experiment": "SPR; purified antibody immobilized, A-beta injected"}, "[4]": {"target": "A-beta42 Oligomer (synthetic) (human)", "sequence (peptide, as listed by the source)": "as the sequence (P05067 672-713) above", "experiment": "SPR; purified antibody immobilized, A-beta injected"}, "A-beta42 Monomer (human) [5]": {"target": "A-beta42 Monomer (human)", "experiment": "SPR direct binding; hybridoma supernatant over immobilized A-beta42 monomer"}, "[6]": {"target": "A-beta42 Oligomer (synthetic) (human)", "experiment": "SPR direct binding; hybridoma supernatant over immobilized A-beta42 oligomer"}, "[7]": {"target": "commercially-prepared stable A-beta42 Oligomers (SynAging) (human)", "sequence (peptide, as listed by the source)": "as the sequence (P05067 672-713) above", "experiment": "SPR; antibody covalently immobilized, stable A-beta42 oligomers at 1 microM"}, "[8]": {"target": "T1, cyclo(CGHHQKG) cyclic peptide, conjugated to BSA", "experiment": "SPR direct binding; hybridoma supernatant over immobilized BSA-conjugated peptide"}, "[9]": {"target": "T2, linear CGHHQKG peptide, conjugated to BSA", "T2 sequence (peptide, conjugated to BSA)": "CGHHQKG", "experiment": "SPR direct binding; hybridoma supernatant over immobilized BSA-conjugated peptide"}}, "note": "Residue numbers refer to the chain shown, from its start. Names and notes keep the numbering of the source."}
{"binder": "B1", "values": [{"measurement": "BRU", "setting": "[1]", "value": 400, "unit": "BRU"}]}
{"binder": "B2", "values": [{"measurement": "fold binding response against aducanumab", "setting": "[2]", "value": "1.5 to 2", "unit": "fold"}]}
{"binder": "B3", "values": [{"measurement": "RU", "setting": "A-beta42 Monomer (human) [3]", "value": -14.1, "unit": "RU"}, {"measurement": "RU", "setting": "[4]", "value": -2.8, "unit": "RU"}, {"measurement": "RU", "setting": "A-beta42 Monomer (human) [5]", "value": 21.6, "unit": "RU"}, {"measurement": "RU", "setting": "[6]", "value": 75.3, "unit": "RU"}, {"measurement": "binding response units (BRU), average", "setting": "[7]", "value": 19.3, "unit": "BRU"}, {"measurement": "RU", "setting": "[8]", "value": 488, "unit": "RU"}, {"measurement": "RU", "setting": "[9]", "value": 210, "unit": "RU"}]}
{"binder": "B4", "values": [{"measurement": "RU", "setting": "[4]", "value": 148, "unit": "RU"}]}
